The labels stand for the following.
T1: HCoV-229E NTD (17–265 aa) (human coronavirus 229E, UniProt P15423 17-265)
T1 chain: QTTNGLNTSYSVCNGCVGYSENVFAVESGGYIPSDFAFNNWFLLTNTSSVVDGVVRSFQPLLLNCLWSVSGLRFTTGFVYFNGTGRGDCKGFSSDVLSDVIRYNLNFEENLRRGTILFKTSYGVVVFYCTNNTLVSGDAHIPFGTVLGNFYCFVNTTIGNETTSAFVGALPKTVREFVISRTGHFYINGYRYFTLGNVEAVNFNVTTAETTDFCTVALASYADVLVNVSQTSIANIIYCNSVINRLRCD

T2: HCoV-229E S ectodomain (17–1115 aa), 229E S trimer (human coronavirus 229E, UniProt P15423 17-1115)
T2 chain: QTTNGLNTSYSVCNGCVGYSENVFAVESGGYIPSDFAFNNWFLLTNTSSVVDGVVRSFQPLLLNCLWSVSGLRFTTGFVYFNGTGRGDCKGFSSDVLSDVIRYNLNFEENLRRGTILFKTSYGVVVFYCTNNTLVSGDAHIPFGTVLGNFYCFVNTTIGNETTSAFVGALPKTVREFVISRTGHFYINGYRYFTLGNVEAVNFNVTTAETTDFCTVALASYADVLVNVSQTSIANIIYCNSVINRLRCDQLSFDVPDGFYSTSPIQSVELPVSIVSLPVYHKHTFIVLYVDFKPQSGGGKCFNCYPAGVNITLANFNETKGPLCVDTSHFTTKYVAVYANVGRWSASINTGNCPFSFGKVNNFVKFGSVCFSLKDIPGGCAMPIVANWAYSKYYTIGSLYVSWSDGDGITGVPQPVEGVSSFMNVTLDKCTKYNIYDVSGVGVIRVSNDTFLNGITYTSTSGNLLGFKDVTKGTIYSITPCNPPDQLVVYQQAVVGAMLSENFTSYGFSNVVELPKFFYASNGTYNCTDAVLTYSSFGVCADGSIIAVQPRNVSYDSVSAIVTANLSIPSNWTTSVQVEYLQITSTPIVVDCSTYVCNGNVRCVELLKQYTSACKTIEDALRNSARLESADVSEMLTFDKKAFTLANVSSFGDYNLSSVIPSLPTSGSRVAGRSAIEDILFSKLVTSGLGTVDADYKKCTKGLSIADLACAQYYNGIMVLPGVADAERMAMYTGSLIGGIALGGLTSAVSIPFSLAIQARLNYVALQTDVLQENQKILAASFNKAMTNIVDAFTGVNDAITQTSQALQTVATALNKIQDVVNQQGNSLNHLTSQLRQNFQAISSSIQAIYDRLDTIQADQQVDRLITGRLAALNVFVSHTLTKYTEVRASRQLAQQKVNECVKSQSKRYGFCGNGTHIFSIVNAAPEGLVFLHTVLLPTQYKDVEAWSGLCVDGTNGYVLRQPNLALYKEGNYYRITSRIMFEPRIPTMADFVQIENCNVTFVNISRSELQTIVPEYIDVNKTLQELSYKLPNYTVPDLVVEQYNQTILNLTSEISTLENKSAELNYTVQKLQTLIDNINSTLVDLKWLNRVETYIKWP

T3: HCoV-229E S1 subunit (17–560 aa) (human coronavirus 229E, UniProt P15423 17-560)
T3 chain: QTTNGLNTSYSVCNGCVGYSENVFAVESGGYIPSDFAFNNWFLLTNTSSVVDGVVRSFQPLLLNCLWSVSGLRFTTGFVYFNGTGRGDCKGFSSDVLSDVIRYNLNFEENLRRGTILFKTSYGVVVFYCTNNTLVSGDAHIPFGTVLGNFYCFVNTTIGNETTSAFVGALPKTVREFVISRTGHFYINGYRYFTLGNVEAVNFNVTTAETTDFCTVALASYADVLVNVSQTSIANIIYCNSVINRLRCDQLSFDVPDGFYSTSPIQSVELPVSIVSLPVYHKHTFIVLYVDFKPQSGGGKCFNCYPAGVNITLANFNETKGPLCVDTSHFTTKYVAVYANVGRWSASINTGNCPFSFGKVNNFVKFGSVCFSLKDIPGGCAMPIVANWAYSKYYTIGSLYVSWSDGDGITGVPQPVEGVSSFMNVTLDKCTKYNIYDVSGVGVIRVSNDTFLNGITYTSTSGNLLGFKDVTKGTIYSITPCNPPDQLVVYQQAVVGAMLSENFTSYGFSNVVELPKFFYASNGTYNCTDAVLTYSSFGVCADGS

B1: Fab B09 (Fab, V domains shown)
VH: EVQLVESGGGLVQPGGSLRLSCAASGFNLSYSSIHWVRQAPGKGLEWVAYIYPYYGSTYYADSVKGRFTISADTSKNTAYLQMNSLRAEDTAVYYCARSWSPSSSYPGYGGLDYWGQGTLVTVSS
VL: DIQMTQSPSSLSASVGDRVTITCRASQSVSSAVAWYQQKPGKAPKLLIYSASSLYSGVPSRFSGSRSGTDFTLTISSLQPEDFATYYCQQSWSYYGSLFTFGQGTKVEIK
B2: Fab A01 (Fab, V domains shown)
VH: EVQLVESGGGLVQPGGSLRLSCAASGFNISSSYIHWVRQAPGKGLEWVASIYSYYSSTSYADSVKGRFTISADTSKNTAYLQMNSLRAEDTAVYYCARGGYAFYGYGSPHSWYALDYWGQGTLVTVSS
VL: B1 VL with S91W, S93P, Y94G, Y95S, G96W, S97G, L98P, F99I
B3: Fab B10 (Fab, V domains shown)
VH: EVQLVESGGGLVQPGGSLRLSCAASGFNLSSSSMHWVRQAPGKGLEWVAYIYPSYSSTYYADSVKGRFTISADTSKNTAYLQMNSLRAEDTAVYYCARASGHFWAYGFDYWGQGTLVTVSS
VL: DIQMTQSPSSLSASVGDRVTITCRASQSVSSAVAWYQQKPGKAPKLLIYSASSLYSGVPSRFSGSRSGTDFTLTISSLQPEDFATYYCQQYSYSGPFTFGQGTKVEIK
B4: Fab D04 (Fab, V domains shown)
VH: EVQLVESGGGLVQPGGSLRLSCAASGFNLSSYYIHWVRQAPGKGLEWVASISPYSSSTYYADSVKGRFTISADTSKNTAYLQMNSLRAEDTAVYYCARWYSPSYGWYWPYASGAGGLDYWGQGTLVTVSS
VL: B3 VL with Y91S, Y93P, S94H, G95Y, P96L, F97I
B5: Fab A10 (Fab, V domains shown)
VH: EVQLVESGGGLVQPGGSLRLSCAASGFNISSYYMHWVRQAPGKGLEWVAYISPYSGYTYYADSVKGRFTISADTSKNTAYLQMNSLRAEDTAVYYCARAHYPYHGSYWGLDYWGQGTLVTVSS
VL: DIQMTQSPSSLSASVGDRVTITCRASQSVSSAVAWYQQKPGKAPKLLIYSASSLYSGVPSRFSGSRSGTDFTLTISSLQPEDFATYYCQQAGYVPITFGQGTKVEIK
B6: Fab A11 (Fab, V domains shown)
VH: EVQLVESGGGLVQPGGSLRLSCAASGFNIYSSYIHWVRQAPGKGLEWVASISSSYGYTYYADSVKGRFTISADTSKNTAYLQMNSLRAEDTAVYYCARGHGWAYVWSSYYPAGAFALDYWGQGTLVTVSS
VL: DIQMTQSPSSLSASVGDRVTITCRASQSVSSAVAWYQQKPGKAPKLLIYSASSLYSGVPSRFSGSRSGTDFTLTISSLQPEDFATYYCQQSYALITFGQGTKVEIK

Where a chain is given by its changes, count along the chain named.

The results in this text go back to paper PMC9636267 (2022).

The first test has as its target T1, HCoV-229E NTD (17–265 aa). The experiment in a line: SPR. (SPR reads the build-up and loss of mass on a sensor chip optically.)
Consider B1, for which the Kd (usually the concentration at which binding is half-saturated) came out at 235 nM.
As to B2, the affinity, expressed as Kd, was 31 nM.
Still for that read-out and setting: the result for B3 reads 5.5 nM; that for B4, 7.7 nM; that for B5, 4.6 nM.
Same read-out and setting: under B6 stands 8.8 nM.

The next test deals with T2, HCoV-229E S ectodomain (17–1115 aa), …. Nature of the test: SPR.
For B1, the Kd came to 33 nM.
In the case of B2, the Kd amounted to 32 nM.
Still for that read-out and setting: the result for B3 reads 2.5 nM; that for B4, 2 nM.
On the same count and under the same terms, under B5 stands 6.3 nM; under B6, 9.4 nM.

For a further test, the target named is T3, HCoV-229E S1 subunit (17–560 aa). The experiment in a line: SPR.
Regarding B1, the Kd came to 32 nM.
Same read-out and setting: the result for B2 reads 17 nM; that for B3, 2.3 nM.
In turn, B4 displayed a Kd of 2 nM.
The same measure, in the same setting: under B5 stands 3.6 nM; under B6, 3.2 nM.

In another test the target is T1, HCoV-229E NTD (17–265 aa). Nature of the test: SPR. The source holds these as a separate data set.
B1: the koff (as a rule, the first-order rate constant of dissociation) was 0.00037 s⁻¹.
Molecule B2 showed a koff of 0.00076 s⁻¹.
On the same count and under the same terms, under B3 stands 0.00069 s⁻¹; under B4, 0.0026 s⁻¹.
Same read-out and setting: under B5 stands 0.0015 s⁻¹.
Same read-out and setting: under B6 stands 0.004 s⁻¹.

A further test has as its target T3, HCoV-229E S1 subunit (17–560 aa). Nature of the test: SPR. This is another data set of the same source.
In turn, B1 returned a koff of 0.00064 s⁻¹.
The same measure, in the same setting: under B2 stands 0.00068 s⁻¹.
On the same count and under the same terms, the result for B3 reads 0.00031 s⁻¹.
Turning to B4, the koff was 0.0012 s⁻¹.
Take B5: the koff stood at 0.00083 s⁻¹.
For the molecule B6, the koff was found to be 0.0018 s⁻¹.

Another test concerns the target T2, HCoV-229E S ectodomain (17–1115 aa), …. Nature of the test: SPR. The source holds these as a separate data set.
Molecule B1 displayed a koff of 0.00015 s⁻¹.
The same measure, in the same setting: the result for B2 reads 0.0017 s⁻¹; that for B3, 0.00044 s⁻¹.
With B4, the koff stood at 0.0012 s⁻¹.
B5 had a koff of 0.00021 s⁻¹.
For the molecule B6, the koff turned out to be 0.0034 s⁻¹.
